Results from patent US20250027068.
Residue numbers refer to the chain shown, from its start.

B1: PRT-50 (protein)
chain: MANQEIRYSEVTPYHVTSVWTKGVTPPANFTQGEDVFHAPYVANQGWYDINKTFNGKDDLLCGAATAGNMLHWWFDQNKEQIERYLKEHPEKGKINFNGEQMFDVKEAIDTKNNQTDSKLFEYFKEKAFPYLSTKHLGVFPDRVLDMFINGYRLSLTNHGPTPVKEGSKDPRGGFFDDVFGRGDQSKLLTSRHDFKEKNLEEISDLIKKELTEGKALGLSHTYANVRINHVINLWGADFDSNGNLKAIYVTDSDSNASVGMKKYFVGVNSAGKVAISAKEIKEDNIGAQVLGLFTLSTGQDSWNQTN
B2: PRT-42 (protein)
chain: MANQEIRYSEVTPYHVTSVWTKGVTPPANFTQGEDVFHAPYVANQGWYDITKTFNGKDDLLCGAATAGNMLHWWFDQNKDQIDRYLEEHPEKQKINFNGEQMFDVKEAIDTKNDQLDSKLFEYFKEKAFPYLSTKHLGVFPDLVIDMFINGYRLSLTNHGPTPVKEGSKDPRGGFFDAVFTRGDQSKLLTSRHDFKEKNLKEISDLIKKELTEGKALGLSHTYANVRINHVINLWGADFDSNGNLKAIYVTDSDSNASIGMKKYFVGVNSAGKVAISAKEIKEDNIGAQVLGLFTLSTGQDSWNQTN
B3: PRT-57 (protein)
chain: B2 chain with T51N, Q81Y, D114H, T181G
B4: PRT-59 (protein)
chain: B2 chain with D83K, D114H, L143H
B5: PRT-43 (protein)
chain: B2 chain with L116T, F175I, F195L
B6: PRT-64 (protein)
chain: B2 chain with D114H, L143H, F175I
B7: PRT-46 (protein)
chain: B2 chain with Q93A, I145L, K263R
B8: PRT-63 (protein)
chain: B2 chain with D80E, D83K, E87K, D114H, L143H, I145L, F175I, A178D
B9: PRT-62 (protein)
chain: B2 chain with D83K, D114H, L143H, F175I, T181G
B10: PRT-4 (protein)
chain: B2 chain with D80E, D83E, E87K, N113D, D114S, L143H, F175I, G218A, S302I
B11: PRT-61 (protein)
chain: B2 chain with T51N, D80E, Q81Y, D83K, D114H, L143H, I145L, F175I, I259V
B12: PRT-58 (protein)
chain: B2 chain with T51N, D80E, Q81Y, E87K, D114H, I145L, A178D
B13: PRT-56 (protein)
chain: B2 chain with T51N, D80E, Q81Y, D114H, I145L, I259V
B14: PRT-54 (protein)
chain: B2 chain with D114H
B15: PRT-47 (protein)
chain: B2 chain with T51N, K57G, E87K, Q93A, L116T, D117N, I145L, I259V
B16: PRT-55 (protein)
chain: B2 chain with Q93A, D114H, T181G
B17: PRT-51 (protein)
chain: B2 chain with T51N, Q81Y, E87K, E88K, Q93A, I145L, A178D, K201E, S241E, K263R
B18: PRT-45 (protein)
chain: B2 chain with K57G, D80E, D114S, L116T, I145L, F175I, K201E
B19: PRT-49 (protein)
chain: B2 chain with Q81Y, Q93A, L116T, L143H, A178D, T181G, I259V
B20: PRT-60 (protein)
chain: B2 chain with D83K, Q93A, D114H, L143H, F175I, T181G
B21: PRT-53 (protein)
chain: B2 chain with F175I
B22: PRT-44 (protein)
chain: B2 chain with K57G, D114S, L116T, I145L, A178D
B23: PRT-3 (protein)
chain: MRNATEAYAKEVPHQITSVWTKGVTPLTPEQFRYNNEDVIHAPYLAHQGWYDITKAFDGKDNLLCGAATAGNMLHWWFDQNKTEIEAYLSKHPEKQKIIFNNQELFDLKAAIDTKDSQTNSQLFNYFRDKAFPNLSARQLGVMPDLVLDMFINGYYLNVFKTQSTDVNRPYQDKDKRGGIFDAVFTRGDQTTLLTARHDLKNKGLNDISTIIKQELTEGRALALSHTYANVSISHVINLWGADFNAEGNLEAIYVTDSDANASIGMKKYFVGINAHGHVAISAKKIEGENIGAQVLGLFTLSSGKDIWQKLS
B24: PRT-48 (protein)
chain: MANQEIRYSEVTPYHVTSVWTKGVTPPANFTQGEDVFHAPYKANQGWYDINKTFNGGDDLLCGAATAGNMLHWWFDQNKDYIDRYLEEHPEKQKINFNGEQMFDVKEAIDTKNNQTDSKLFEYFKEKAFPYLSTKHLGVFPDRVIDMFINGYRLSLTNHGPTPVKEGSKDPRGGFFDDVFTRGDQSKLLTSRHDFKEKNLKEISDLIKKELKEGKALGLSHTYANVRINHVINLWGADFDSNGNLKAIYVTDSDSNASVGMKKYRVGVNSAGKVAISAKEIKEDNIGAQVLGLFTLSTGQDSWNQTN
B25: PRT-52 (protein)
chain: B24 chain with K42V, D80E, E87K, N114S, R143L, D178A, L200Y, K201N, R265F

Biological target: pooled human IgG

| Protein | Enzyme Activity Endpoint Assay: Fab′2 | Enzyme Activity Endpoint Assay: Fc | Enzyme Activity Endpoint Assay: IgG | Enzyme Activity Endpoint Assay: scIgG | Enzyme Activity Endpoint Assay (purified): Fab′2 | Enzyme Activity Endpoint Assay (purified): Fc | Enzyme Activity Endpoint Assay (purified): IgG | Enzyme Activity Endpoint Assay (purified): scIgG |
| --- | --- | --- | --- | --- | --- | --- | --- | --- |
| B1 | 0 ng/µL | 5 ng/µL | 135 ng/µL | 0 ng/µL | – | – | – | – |
| B2 | 0 ng/µL | 54 ng/µL | 26 ng/µL | 53 ng/µL | – | – | – | – |
| B3 | – | – | – | – | 0 ng/µL | 52 ng/µL | 44 ng/µL | 55 ng/µL |
| B4 | – | – | – | – | 6 ng/µL | 70 ng/µL | 8 ng/µL | 56 ng/µL |
| B5 | 23 ng/µL | 89 ng/µL | 13 ng/µL | 32 ng/µL | – | – | – | – |
| B6 | – | – | – | – | 50 ng/µL | 123 ng/µL | 16 ng/µL | 17 ng/µL |
| B7 | 20 ng/µL | 101 ng/µL | 15 ng/µL | 39 ng/µL | – | – | – | – |
| B8 | – | – | – | – | 44 ng/µL | 120 ng/µL | 13 ng/µL | 19 ng/µL |
| B9 | – | – | – | – | 15 ng/µL | 94 ng/µL | 8 ng/µL | 56 ng/µL |
| B10 | 21 ng/µL | 97 ng/µL | 23 ng/µL | 42 ng/µL | – | – | – | – |
| B11 | – | – | – | – | 0 ng/µL | 55 ng/µL | 52 ng/µL | 50 ng/µL |
| B12 | – | – | – | – | 0 ng/µL | 9 ng/µL | 125 ng/µL | 1 ng/µL |
| B13 | – | – | – | – | 0 ng/µL | 13 ng/µL | 125 ng/µL | 3 ng/µL |
| B14 | 0 ng/µL | 24 ng/µL | 110 ng/µL | 10 ng/µL | – | – | – | – |
| B15 | 0 ng/µL | 5 ng/µL | 132 ng/µL | 0 ng/µL | – | – | – | – |
| B16 | – | – | – | – | 0 ng/µL | 70 ng/µL | 19 ng/µL | 57 ng/µL |
| B17 | 0 ng/µL | 11 ng/µL | 118 ng/µL | 0 ng/µL | – | – | – | – |
| B18 | 3 ng/µL | 76 ng/µL | 8 ng/µL | 67 ng/µL | – | – | – | – |
| B19 | 30 ng/µL | 96 ng/µL | 18 ng/µL | 40 ng/µL | – | – | – | – |
| B20 | – | – | – | – | 52 ng/µL | 133 ng/µL | 16 ng/µL | 16 ng/µL |
| B21 | 7 ng/µL | 84 ng/µL | 9 ng/µL | 61 ng/µL | – | – | – | – |
| B22 | 3 ng/µL | 78 ng/µL | 14 ng/µL | 60 ng/µL | – | – | – | – |
| B23 | 14 ng/µL | 72 ng/µL | 11 ng/µL | 33 ng/µL | – | – | – | – |
| B24 | 0 ng/µL | 5 ng/µL | 141 ng/µL | 0 ng/µL | – | – | – | – |
| B25 | 0 ng/µL | 12 ng/µL | 122 ng/µL | 0 ng/µL | – | – | – | – |
